For test [1], the target named is Ddx4_N1_1 (disordered N-terminus of Ddx4 protein, forming Ddx4N1 membraneless organelles / proteinaceous phase) (Homo sapiens (Human)) (UniProt Q9NQI0). Kind of test: confocal fluorescence microscopy, partitioning inside vs outside Ddx4N1 organelles in vitro; 11.8 µM, 175 mM NaCl.
For test [2] the target is unchanged. Kind of test: confocal fluorescence microscopy, partitioning inside vs outside Ddx4N1 organelles in vitro; 5 µM, 150 mM NaCl.

The values that follow come from patent US20180313827A1.

Sequence of UniProt Q9NQI0 (Q9NQI0 other isoform, or with tags, fused parts or gaps limits assumed): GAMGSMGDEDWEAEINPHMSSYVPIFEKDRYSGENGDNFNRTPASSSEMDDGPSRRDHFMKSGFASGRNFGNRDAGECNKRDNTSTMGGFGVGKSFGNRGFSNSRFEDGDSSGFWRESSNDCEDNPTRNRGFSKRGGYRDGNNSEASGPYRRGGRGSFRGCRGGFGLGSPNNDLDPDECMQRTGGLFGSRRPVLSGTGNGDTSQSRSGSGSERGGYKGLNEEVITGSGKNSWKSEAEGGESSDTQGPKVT

Substance “aB_GFP (alphaB-crystallin fused to GFP, oligomer)” had a ΔGpart (partition free energy into Ddx4N1 organelles) in test [1] of -7.8 kJmol^-1.

Substance “GFP^-30 (acidic GFP, -30 surface charge)” returned a ΔGpart (partition free energy into Ddx4N1 organelles) in test [2] of 1.6 kJmol^-1.
